The experiment deals with human BKCa channel α-subunit (hSlo1), residues 1-1,114 (human). Kind of experiment: cryo-EM structure; purified tetrameric channel (5.5 mg/ml, 44 μM) in 20 mM Tris-HCl pH 8.0, 450 mM KCl, 10 mM CaCl2, 10 mM MgCl2, 0.01% glyco-diosgenin, POPE/POPC/POPA, mixed with 1 mM CTIBD on ice for 30 min; C1 and C4 symmetry.

For “human BKCa channel α-subunit (hSlo1), residues 1-1,114 (natural protein)”, the stoichiometry N is 4.
